B1: HDV Ribozyme (parent)
chain: GGCCGGCAUGGUCCCAGCCUCCUCGCUGGCGCCGGCUGGGCAACAUUCCGAGGGGACCGUCCCCUCGGUAAUGGCGAAUGGGACCCA

Variants of: B1
Assay: self-cleavage, relative activity (ratio to wild type); higher = more cleavage; co-transcriptional

| Variant | self-cleavage |
| --- | --- |
| GGCCGGAAUGGUCCCAGCCUCCUCGCUGGCGCCGGCUGGGCAACAUUCCGAGGGGACCGUCCCCUCGGUAAUGGCGAAUGGGACCCA | 0.644 |
| GGCCGGAAUGGUCCCAGCCUCCUCGCUGGCGCCGGCUGGGCAACAUUCCGAGGGGACCGUCCCCUCGGUAAUGGCGAAUGGGACCCC | 0.514 |
| GGCCGUCAUGGUCCCAGCCUCCUCGCUGGCGCCGGCUGGGCAACAAUCCGAGGGGACCGUCCCCUCGGUAAUGGCGAAUGGGACCCA | 0.0755 |
| GGCCGUCAUGGUCCCAGCCUCCUCGCUGGCGCCGGCUGGGCAACACUCCGAGGGGACCGUCCCCUCGGUAAUGGCGAAUGGGACCCA | 0.133 |
| GGCCGUCAUGGUCCCAGCCUCCUCGCUGGCGCCGGCUGGGCAACAGUCCGAGGGGACCGUCCCCUCGGUAAUGGCGAAUGGGACCCA | 0.123 |
| GGCCGGAAUGGUCCCAGCCUCCUCGCUGGCGCCGGCUGGGCAACAUUCCGAGGGGACCGUCCCCUCGGUAUUGGCGAAUGGGACCCA | 0.462 |
| GGCCGGAAUGGUCCCAGCCUCCUCGCUGGCGCCGGCUGGGCAACAUUCCGAGGGGACCGUCCCCUCGGUAGUGGCGAAUGGGACCCA | 0.584 |
| GGCCGGAAUGGUCCCAGCCUCCUCGCUGGCGCCGGCUGGGCAACAUUCCGAGGGGACCGUCCCCUCGGUACUGGCGAAUGGGACCCA | 0.298 |
| GGCCGUCAUGGUCCCAGCCUCCUCGCUGGCGCCGGCUGGGCAACAUUCCGAGGGGACCGUCCCCUCGGAAAUGGCGAAUGGGACCCA | 0.415 |
| GGCCGUCAUGGUCCCAGCCUCCUCGCUGGCGCCGGCUGGGCAACAUUCCGAGGGGACCGUCCCCUCGGGAAUGGCGAAUGGGACCCA | 0.375 |
| GGCCGUCAUGGUCCCAGCCUCCUCGCUGGCGCCGGCUGGGCAACAUUCCGAGGGGACCGUCCCCUCGGCAAUGGCGAAUGGGACCCA | 0.655 |
| GGCCGGAAUGGUCCAAGCCUCCUCGCUGGCGCCGGCUGGGCAACAUUCCGAGGGGACCGUCCCCUCGGUAAUGGCGAAUGGGACCCA | 0.0415 |
| GGCCGGAAUGGUCCCAGCCUCCUCGCUGGCGCCGGCUGGGCGACAUUCCGAGGGGACCGUCCCCUCGGUAAUGGCGAAUGGGACCCA | 0.0831 |
| GGCCGGAAUGGUCCCAGCCUCCUCGCUGGCGCCGGCUGGGCUACAUUCCGAGGGGACCGUCCCCUCGGUAAUGGCGAAUGGGACCCA | 0.108 |
| GGCCGGAAUGGUCCCAGCCUCCUCGCUGGCGCCGGCUGGGCAAAAUUCCGAGGGGACCGUCCCCUCGGUAAUGGCGAAUGGGACCCA | 0.0978 |
| GGCCGUCAUGGUCCCAGCCUCCUCGCUGGCGCCGGCUGGGCAACAUUCCGAGGGGACCGUCCCCGCGGUAAUGGCGAAUGGGACCCA | 0.453 |
| GGCCGUCAUGGUCCCAGCCUCCUCGCUGGCGCCGGCUGGGCAACAUUCCGAGGGGACCGUCCCCUCGGUAAUGGCGAAAGGGACCCA | 0.246 |
| GGCCGUCAUGGUCCCAGCCUCCUCGCUGGCGCCGGCUGGGCAACAUUCCGAGGGGACCGUCCCCUCGGUAAUGGCGAACGGGACCCA | 0.123 |
| GGCCGGAAUGGUCCCAGCUUCCUCGCUGGCGCCGGCUGGGCAACAUUCCGAGGGGACCGUCCCCUCGGUAAUGGCGAAUGGGACCCA | 0.0906 |
| GGCCGGAGUGGUCCCAGCCUCCUCGCUGGCGCCGGCUGGGCAACAUUCCGAGGGGACCGUCCCCUCGGUAAUGGCGAAUGGGACCCA | 0.831 |
| GGCCGGAUUGGUCCCAGCCUCCUCGCUGGCGCCGGCUGGGCAACAUUCCGAGGGGACCGUCCCCUCGGUAAUGGCGAAUGGGACCCA | 0.609 |
| GGCCGGACUGGUCCCAGCCUCCUCGCUGGCGCCGGCUGGGCAACAUUCCGAGGGGACCGUCCCCUCGGUAAUGGCGAAUGGGACCCA | 0.65 |

| Variant | self-cleavage |
| --- | --- |
| GGCCGGAAUGGUCCCAGCCUCCUCGCUGGCGCCGGCUGGGCAACAUUCAGAGGGGACCGUCCCCUCGGUAAUGGCGAAUGGGACCCA | 0.538 |
| GGCCGGAAUGGUCCCAGCCUCCUCGCUGGCGCCGGCUGGGCAACUUUCCGAGGGGACCGUCCCCUCGGUAAUGGCGAAUGGGACCCA | 0.332 |
| GGCCGGAAUGGUCCCAGCCUCCUCGCUGGCGCCGGCUGGGAAACAUUCCGAGGGGACCGUCCCCUCGGUAAUGGCGAAUGGGACCCA | 0.342 |
| GGCCGGAAUGGUCCCAGCCUCCUCGCUGGCGCCGGCUGGGGAACAUUCCGAGGGGACCGUCCCCUCGGUAAUGGCGAAUGGGACCCA | 0 |
| GGCCGGAAUGGUCCCAGCCUCCUCGCUGGCGCCGGCUGGGCAACAUUCCGAGGGGACCGUCCCCUCGGUAAUGGCGAGUGGGACCCA | 0.0875 |
| GGCCGGAAUGGUCCCAGCCUCCUCGCUGGCGCCGGCUGGGCAACAUUCCGAGGGGACCGUCCCCUCGGUAAUGGCGACUGGGACCCA | 0.0554 |
| GGCCGGAAUGGUCUCAGCCUCCUCGCUGGCGCCGGCUGGGCAACAUUCCGAGGGGACCGUCCCCUCGGUAAUGGCGAAUGGGACCCA | 0.447 |
| GGCCGGAAUGGUCGCAGCCUCCUCGCUGGCGCCGGCUGGGCAACAUUCCGAGGGGACCGUCCCCUCGGUAAUGGCGAAUGGGACCCA | 0 |
| GGCCGGAAUGGUCCCAGCCUCCUCGCUGGCGCCGGCUGGGCAACAUUCCGAGGGGACCGUCCCCUCGGUAAUGGCGAAUGGGCCCCA | 0.0923 |
| GGCCGGAAUGGUCCCAGCCUGCUCGCUGGCGCCGGCUGGGCAACAUUCCGAGGGGACCGUCCCCUCGGUAAUGGCGAAUGGGACCCA | 0 |
| GGCCGGAAUGGUCCCAGCCUUCUCGCUGGCGCCGGCUGGGCAACAUUCCGAGGGGACCGUCCCCUCGGUAAUGGCGAAUGGGACCCA | 0 |
| GGCCGGAAUGGUCCCAGCCUACUCGCUGGCGCCGGCUGGGCAACAUUCCGAGGGGACCGUCCCCUCGGUAAUGGCGAAUGGGACCCA | 0.0791 |
| GGCCGGAAUGGUCCCAGCCUCCUCGCUGGAGCCGGCUGGGCAACAUUCCGAGGGGACCGUCCCCUCGGUAAUGGCGAAUGGGACCCA | 0.0282 |
| GGCCGGAAUGGUCCCAGCCUCCUCGCUGGUGCCGGCUGGGCAACAUUCCGAGGGGACCGUCCCCUCGGUAAUGGCGAAUGGGACCCA | 0.0396 |
| GGCCGGAAUGGUCCCAGCCUCCUCGCUGGGGCCGGCUGGGCAACAUUCCGAGGGGACCGUCCCCUCGGUAAUGGCGAAUGGGACCCA | 0.0791 |
| GGCCGGAAUGGUCCCAGCCUCCUCGCUGGCGCCGGCUGGGCAACAUUCCGAGGGGAUCGUCCCCUCGGUAAUGGCGAAUGGGACCCA | 0.702 |
| GGCCGGAAUGGUCCCAGCCUCCUCGCUGGCGCCGGCUGGGCAACAUUCCGAGGGGAACGUCCCCUCGGUAAUGGCGAAUGGGACCCA | 0.597 |
| GGCCGGAAUGGUCCCAGCCUCCUCGCUGGCGCCGGCUGGGCAGCAUUCCGAGGGGACCGUCCCCUCGGUAAUGGCGAAUGGGACCCA | 0 |
| GGCCGGAAUGGUCCCAGCCUCCUCGCUGGCGCCGGCUGGGCAACAUUCCGAGGGGGCCGUCCCCUCGGUAAUGGCGAAUGGGACCCA | 0.399 |
| GGCCGGAAUGGUCCCAGCCUCCUCGCUGGCGCCGGCUGGGCAACAUUCCGAGGGGCCCGUCCCCUCGGUAAUGGCGAAUGGGACCCA | 0.831 |
| GGCCGGAAUGGUCCCAGCCUCCUAGCUGGCGCCGGCUGGGCAACAUUCCGAGGGGACCGUCCCCUCGGUAAUGGCGAAUGGGACCCA | 0.125 |
| GGCCGGAAUGGUCCCAGCCUCCUUGCUGGCGCCGGCUGGGCAACAUUCCGAGGGGACCGUCCCCUCGGUAAUGGCGAAUGGGACCCA | 0.306 |

| Variant | self-cleavage |
| --- | --- |
| GGCCGGAAUGGUCCCCGCCUCCUCGCUGGCGCCGGCUGGGCAACAUUCCGAGGGGACCGUCCCCUCGGUAAUGGCGAAUGGGACCCA | 0.277 |
| GGCCGGAAUGGUCCCGGCCUCCUCGCUGGCGCCGGCUGGGCAACAUUCCGAGGGGACCGUCCCCUCGGUAAUGGCGAAUGGGACCCA | 0.249 |
| GGCCGGAAUGGUCCCUGCCUCCUCGCUGGCGCCGGCUGGGCAACAUUCCGAGGGGACCGUCCCCUCGGUAAUGGCGAAUGGGACCCA | 0.499 |
| GGCCGUCAUGGUCCCAGCCUCCUCGCAGGCGCCGGCUGGGCAACAUUCCGAGGGGACCGUCCCCUCGGUAAUGGCGAAUGGGACCCA | 0.453 |
| GGCCGGAAUGGUCCCAGCCUCGUCGCUGGCGCCGGCUGGGCAACAUUCCGAGGGGACCGUCCCCUCGGUAAUGGCGAAUGGGACCCA | 0.0791 |
| GGCCGGAAUGGUCCCAGCCUCCUCGCUGGCGCCGGAUGGGCAACAUUCCGAGGGGACCGUCCCCUCGGUAAUGGCGAAUGGGACCCA | 0.0923 |
| GGCCGGAAUGGUCCCAGCCUCCUCGCUGGCGCCGGUUGGGCAACAUUCCGAGGGGACCGUCCCCUCGGUAAUGGCGAAUGGGACCCA | 0.203 |
| GGCCGGAAUGGUCCCAGGCUCCUCGCUGGCGCCGGCUGGGCAACAUUCCGAGGGGACCGUCCCCUCGGUAAUGGCGAAUGGGACCCA | 0 |
| GGCCGGAAUGGUACCAGCCUCCUCGCUGGCGCCGGCUGGGCAACAUUCCGAGGGGACCGUCCCCUCGGUAAUGGCGAAUGGGACCCA | 0.185 |
| GGCCGGAAUGGUCCCAGCCUCCUCGCUGGCGCCGGCUGGGCAACAUUCCGAGGGGACCGUCCCCUCGGUGAUGGCGAAUGGGACCCA | 0.426 |
| GGCCGGAAUGGUCCCAGCCUCCUCGCUGGCGCCGGCUGGGCAACAUUCCGAGGGGACCGUCCCCUCGGUUAUGGCGAAUGGGACCCA | 0.356 |
| GGCCGGAAUGGUCCCAGCCUCCUCGCUGGCGCCGGCUGGGCAACAUUCCGAGGGGACCGUCCCCUCGGUCAUGGCGAAUGGGACCCA | 0.346 |
| GGCCGGAAUGGUCCCAGCCUCCUCGCUGGCGCCGGCUGGGCAACAUUACGAGGGGACCGUCCCCUCGGUAAUGGCGAAUGGGACCCA | 0.604 |
| GGCCGGAAUGGUCCCAGCCUCCUCGCUGGCGCCGGCUGGGCAACAUUCCGCGGGGACCGUCCCCUCGGUAAUGGCGAAUGGGACCCA | 0.609 |
| GGCCGGAAUGGUCCCAGCCUCCUCGCUGGCGCCGGCUGGGCAACAUUCCGGGGGGACCGUCCCCUCGGUAAUGGCGAAUGGGACCCA | 0.635 |
| GGCCGUCAUGGUCCCAGCCUCCUCGCUGGCGCCGGCAGGGCAACAUUCCGAGGGGACCGUCCCCUCGGUAAUGGCGAAUGGGACCCA | 0.0437 |
| GGCCGUCAUGGUCCCAGCCUCCUCGCUGGCGCCGGCUGGGCAACAUUCCGAGGGGACCGACCCCUCGGUAAUGGCGAAUGGGACCCA | 0.571 |
| GGCCGUCAUGGUCCCAGCCUCCUCGCUGGCGCCGGCUGGGCAACAUUCCGAGGGGACCGGCCCCUCGGUAAUGGCGAAUGGGACCCA | 0.346 |
| GGCCGUCAUGGUCCCAGCCUCCUCGCUGGCGCCGGCUGGGCAACAUACCGAGGGGACCGUCCCCUCGGUAAUGGCGAAUGGGACCCA | 0.482 |
| GGCCGUCAUGGUCCCAGCCUCCUCGCUGGCGCCGGCUGGGCAACAUCCCGAGGGGACCGUCCCCUCGGUAAUGGCGAAUGGGACCCA | 0.467 |

From the RNAGym collection of RNA variant scans (doi:10.7554/elife.80360)
